Assay results: the supplement of paper PMC9112550, “Optimization of the antimicrobial peptide Bac7 by deep mutational scanning” (BMC Biology, 2022)

test system: Escherichia coli TOP10; assay: shrunken log2 fold change of peptide-encoding DNA abundance (4.5 h post-induction vs induction); higher = less antimicrobial activity (less host growth inhibition); conditions: time post-induction: 4.5 h; library: site-saturation at positions 5, 18, 19, 20
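Further: peptides expressed intracellularly from a pBAD plasmid library in pooled LB shake-flask culture, induced with 0.3% L-arabinose, DNA abundance read by NGS, three biological replicates, DESeq2 with apeglm shrinkage.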

Row | Sequence | shrunken log2 fold change
1 | RRIRGRPPRLPRPRPRPFHHPRP | -0.126
2 | RRIRGRPPRLPRPRPRPFHLPRP | -0.391
3 | RRIRGRPPRLPRPRPRPFIQPRP | -0.382
4 | RRIRGRPPRLPRPRPRPFIRPRP | -0.257
5 | RRIRGRPPRLPRPRPRPFKLPRP | -0.167
6 | RRIRGRPPRLPRPRPRPFLPPRP | -0.148
7 | RRIRGRPPRLPRPRPRPFMDPRP | -0.000933
8 | RRIRGRPPRLPRPRPRPFMWPRP | 0.211
9 | RRIRGRPPRLPRPRPRPFNQPRP | -0.28
10 | RRIRGRPPRLPRPRPRPFRNPRP | 0.0285
11 | RRIRGRPPRLPRPRPRPFRRPRP | 0.234
12 | RRIRGRPPRLPRPRPRPFSLPRP | -0.693
13 | RRIRGRPPRLPRPRPRPFSQPRP | 0.194
14 | RRIRGRPPRLPRPRPRPFSRPRP | 0.612
15 | RRIRGRPPRLPRPRPRPFTAPRP | 0.272
16 | RRIRGRPPRLPRPRPRPFTKPRP | -0.282
17 | RRIRGRPPRLPRPRPRPFTSPRP | -0.0475
18 | RRIRGRPPRLPRPRPRPFWNPRP | 0.087
19 | RRIRGRPPRLPRPRPRPFWPPRP | 0.653
20 | RRIRGRPPRLPRPRPRPFYSPRP | -0.00304
21 | RRIRGRPPRLPRPRPRPGDGPRP | 0.895
22 | RRIRGRPPRLPRPRPRPGDRPRP | 1
23 | RRIRGRPPRLPRPRPRPGEFPRP | 0.329
24 | RRIRGRPPRLPRPRPRPGGEPRP | 1.24
25 | RRIRGRPPRLPRPRPRPGGKPRP | 0.555

Row | Sequence | shrunken log2 fold change
26 | RRIRGRPPRLPRPRPRPGGRPRP | 1.09
27 | RRIRGRPPRLPRPRPRPGHIPRP | 0.299
28 | RRIRGRPPRLPRPRPRPGHQPRP | 0.124
29 | RRIRGRPPRLPRPRPRPGHRPRP | 0.263
30 | RRIRGRPPRLPRPRPRPGIKPRP | 0.429
31 | RRIRGRPPRLPRPRPRPGITPRP | 0.356
32 | RRIRGRPPRLPRPRPRPGLVPRP | 0.848
33 | RRIRGRPPRLPRPRPRPGMHPRP | 0.589
34 | RRIRGRPPRLPRPRPRPGMIPRP | 0.309
35 | RRIRGRPPRLPRPRPRPGNGPRP | 0.434
36 | RRIRGRPPRLPRPRPRPGQKPRP | 0.494
37 | RRIRGRPPRLPRPRPRPGSLPRP | 0.421
38 | RRIRGRPPRLPRPRPRPGVKPRP | 0.588
39 | RRIRGRPPRLPRPRPRPGVPPRP | 1
40 | RRIRGRPPRLPRPRPRPGWQPRP | 0.0826
41 | RRIRGRPPRLPRPRPRPGYEPRP | 0.365
42 | RRIRGRPPRLPRPRPRPHAEPRP | 2.68
43 | RRIRGRPPRLPRPRPRPHAIPRP | 0.46
44 | RRIRGRPPRLPRPRPRPHDEPRP | 0.136
45 | RRIRGRPPRLPRPRPRPHEHPRP | 1.13
46 | RRIRGRPPRLPRPRPRPHGMPRP | 0.0949
47 | RRIRGRPPRLPRPRPRPHKEPRP | -0.0695
48 | RRIRGRPPRLPRPRPRPHKLPRP | 0.213
49 | RRIRGRPPRLPRPRPRPHLYPRP | 0.155
50 | RRIRGRPPRLPRPRPRPHMDPRP | 0.0325

Row | Sequence | shrunken log2 fold change
51 | RRIRGRPPRLPRPRPRPHNFPRP | 0.0511
52 | RRIRGRPPRLPRPRPRPHNHPRP | -0.27
53 | RRIRGRPPRLPRPRPRPHNQPRP | 0.05
54 | RRIRGRPPRLPRPRPRPHQEPRP | 0.305
55 | RRIRGRPPRLPRPRPRPHQTPRP | 0.242
56 | RRIRGRPPRLPRPRPRPHQVPRP | 0.078
57 | RRIRGRPPRLPRPRPRPHSAPRP | 0.0365
58 | RRIRGRPPRLPRPRPRPHSPPRP | 0.289
59 | RRIRGRPPRLPRPRPRPHTVPRP | -0.311
60 | RRIRGRPPRLPRPRPRPHVHPRP | -0.332
61 | RRIRGRPPRLPRPRPRPHWEPRP | 0.324
62 | RRIRGRPPRLPRPRPRPHYVPRP | -0.0585
63 | RRIRGRPPRLPRPRPRPIACPRP | 0.526
64 | RRIRGRPPRLPRPRPRPIAFPRP | 0.8
65 | RRIRGRPPRLPRPRPRPICIPRP | 0.176
66 | RRIRGRPPRLPRPRPRPICVPRP | 0.269
67 | RRIRGRPPRLPRPRPRPIEGPRP | 0.0275
68 | RRIRGRPPRLPRPRPRPIESPRP | 0.108
69 | RRIRGRPPRLPRPRPRPIFEPRP | 0.357
70 | RRIRGRPPRLPRPRPRPIFHPRP | 0.249
71 | RRIRGRPPRLPRPRPRPIGYPRP | -0.017
72 | RRIRGRPPRLPRPRPRPIINPRP | 0.0488
73 | RRIRGRPPRLPRPRPRPIKWPRP | 0.434
74 | RRIRGRPPRLPRPRPRPILLPRP | -0.0679
75 | RRIRGRPPRLPRPRPRPINAPRP | 0.288

Row | Sequence | shrunken log2 fold change
76 | RRIRGRPPRLPRPRPRPINQPRP | -0.0767
77 | RRIRGRPPRLPRPRPRPIPWPRP | 0.361
78 | RRIRGRPPRLPRPRPRPIRCPRP | 0.261
79 | RRIRGRPPRLPRPRPRPIRMPRP | 0.0246
80 | RRIRGRPPRLPRPRPRPISGPRP | 0.000749
81 | RRIRGRPPRLPRPRPRPISNPRP | 0.0729
82 | RRIRGRPPRLPRPRPRPIWVPRP | -0.0275
83 | RRIRGRPPRLPRPRPRPIYFPRP | -0.533
84 | RRIRGRPPRLPRPRPRPKFCPRP | 0.23
85 | RRIRGRPPRLPRPRPRPKHGPRP | 0.699
86 | RRIRGRPPRLPRPRPRPKLWPRP | 0.896
87 | RRIRGRPPRLPRPRPRPKLYPRP | 0.354
88 | RRIRGRPPRLPRPRPRPKNFPRP | 0.0583
89 | RRIRGRPPRLPRPRPRPKNKPRP | 0.375
90 | RRIRGRPPRLPRPRPRPKPMPRP | 0.419
91 | RRIRGRPPRLPRPRPRPKRHPRP | 1
92 | RRIRGRPPRLPRPRPRPKSFPRP | 0.0944
93 | RRIRGRPPRLPRPRPRPKTLPRP | 0.872
94 | RRIRGRPPRLPRPRPRPKTMPRP | 0.459
95 | RRIRGRPPRLPRPRPRPKTSPRP | 0.702
96 | RRIRGRPPRLPRPRPRPKTTPRP | 0.521
97 | RRIRGRPPRLPRPRPRPKVIPRP | 0.197
98 | RRIRGRPPRLPRPRPRPKWFPRP | 0.0384
99 | RRIRGRPPRLPRPRPRPKYCPRP | 0.203
100 | RRIRGRPPRLPRPRPRPKYWPRP | 1.13

Row | Sequence | shrunken log2 fold change
101 | RRIRGRPPRLPRPRPRPLANPRP | 0.835
102 | RRIRGRPPRLPRPRPRPLCAPRP | 1.55
103 | RRIRGRPPRLPRPRPRPLCRPRP | 0.598
104 | RRIRGRPPRLPRPRPRPLCTPRP | 2.26
105 | RRIRGRPPRLPRPRPRPLDTPRP | 0.963
106 | RRIRGRPPRLPRPRPRPLETPRP | 0.985
107 | RRIRGRPPRLPRPRPRPLFCPRP | 0.367
108 | RRIRGRPPRLPRPRPRPLFLPRP | 0.0673
109 | RRIRGRPPRLPRPRPRPLHAPRP | 1.54
110 | RRIRGRPPRLPRPRPRPLHNPRP | 0.249
111 | RRIRGRPPRLPRPRPRPLIHPRP | 0.324
112 | RRIRGRPPRLPRPRPRPLISPRP | 0.364
113 | RRIRGRPPRLPRPRPRPLKLPRP | 0.164
114 | RRIRGRPPRLPRPRPRPLLVPRP | 0.781
115 | RRIRGRPPRLPRPRPRPLQCPRP | 0.904
116 | RRIRGRPPRLPRPRPRPLQKPRP | 1.28
117 | RRIRGRPPRLPRPRPRPLRAPRP | 1.72
118 | RRIRGRPPRLPRPRPRPLRDPRP | 1.3
119 | RRIRGRPPRLPRPRPRPLRHPRP | 1.34
120 | RRIRGRPPRLPRPRPRPLSPPRP | 0.435
121 | RRIRGRPPRLPRPRPRPLTCPRP | 0.416
122 | RRIRGRPPRLPRPRPRPLVRPRP | 0.577
123 | RRIRGRPPRLPRPRPRPLWIPRP | 0.163
124 | RRIRGRPPRLPRPRPRPLWLPRP | 0.574
125 | RRIRGRPPRLPRPRPRPLWQPRP | 0.766

Row | Sequence | shrunken log2 fold change
126 | RRIRGRPPRLPRPRPRPLYAPRP | 0.64
127 | RRIRGRPPRLPRPRPRPLYGPRP | -0.105
128 | RRIRGRPPRLPRPRPRPLYKPRP | 0.0468
129 | RRIRGRPPRLPRPRPRPLYRPRP | 1.11
130 | RRIRGRPPRLPRPRPRPLYVPRP | 0.0628
131 | RRIRGRPPRLPRPRPRPMDCPRP | 0.357
132 | RRIRGRPPRLPRPRPRPMEKPRP | 0.0535
133 | RRIRGRPPRLPRPRPRPMEVPRP | -0.121
134 | RRIRGRPPRLPRPRPRPMFFPRP | 0.336
135 | RRIRGRPPRLPRPRPRPMFWPRP | 0.336
136 | RRIRGRPPRLPRPRPRPMGNPRP | 0.124
137 | RRIRGRPPRLPRPRPRPMKTPRP | 0.494
138 | RRIRGRPPRLPRPRPRPMKYPRP | 0.0733
139 | RRIRGRPPRLPRPRPRPMMNPRP | 0.159
140 | RRIRGRPPRLPRPRPRPMNEPRP | 0.056
141 | RRIRGRPPRLPRPRPRPMPNPRP | -0.0294
142 | RRIRGRPPRLPRPRPRPMPVPRP | 0.447
143 | RRIRGRPPRLPRPRPRPMSYPRP | 0.0417
144 | RRIRGRPPRLPRPRPRPMTAPRP | 0.692
145 | RRIRGRPPRLPRPRPRPMVCPRP | 0.55
146 | RRIRGRPPRLPRPRPRPMWRPRP | 0.899
147 | RRIRGRPPRLPRPRPRPMYFPRP | -0.0129
148 | RRIRGRPPRLPRPRPRPNANPRP | 0.837
149 | RRIRGRPPRLPRPRPRPNCSPRP | 0.99
150 | RRIRGRPPRLPRPRPRPNDDPRP | 0.349
